The results in this text go back to paper PMC5356841 (2016).

The target in the experiment is individual catalytic domain of human MT1-MMP (MT1-CAT) (human, UniProt P50281 114-287, biotin (EZ-Link sulfo-NHS-LC-biotin, 1:20 enzyme-biotin molar ratio) in the Fab binding ELISA only; unlabelled in the competition ELISA and the cleavage assays). The experiment is described as follows: ELISA. (In general: In an ELISA, binding on a coated surface is turned into a signal by an enzyme label.)

B1: 3E9 Fab (Fab, V domains shown)
VH: EVQLVESGGGLVQPGGSLRLSCAASGFNLYYSSMHWVRQAPGKGLEWVASIYPSYGSTYYADSVKGRFTISADTSKNTAYLQMNSLRAEDTAVYYCARNGRYPGFLKRAHKRLLNFKAYVMDYWGQGTLVTVSS
VL: DIQMTQSPSSLSASVGDRVTITCRASQSVSSAVAWYQQKPGKAPKLLIYSASSLYSGVPSRFSGSRSGTDFTLTISSLQPEDFATYYCQQGSWYLITFGQGTKVEIK
For B1, the Kd turned out to be 45 nM.

B2: 2B5 Fab (Fab, V domains shown)
VH: EVQLVESGGGLVQPGGSLRLSCAASGFNLSYSSMHWVRQAPGKGLEWVASIYPYSGYTYYADSVKGRFTISADTSKNTAYLQMNSLRAEDTAVYYCARIGVNAWAVKMSQRMLATRGSGWYVMDYWGQGTLVTVSS
VL: DIQMTQSPSSLSASVGDRVTITCRASQSVSSAVAWYQQKPGKAPKLLIYSASSLYSGVPSRFSGSRSGTDFTLTISSLQPEDFATYYCQQSSSYPYSPITFGQGTKVEIK
As for B2, the Kd turned out to be 21 nM.

Usually Kd stands for the concentration at which binding is half-saturated.
